These results are taken from patent publication US20160122417A1.

This experiment addresses wild-type human EGFR from A431 cells (human) (UniProt P00533). The experiment in a line: scFv-linked agarose beads incubated with A431 cell lysate; captured EGFR detected with anti-EGFR antibody cocktail, bead fluorescence normalized to the U87-EGFRvIII lysate signal.

For “MR1 scFv, azide-functionalized and immobilized on DBCO-functionalized agarose beads”, the percent reduction in A431 lysate EGFR binding signal relative to U87-EGFRvIII lysate signal turned out to be 85%.
